According to patent US20250145729A1 (DENALI THERAPEUTICS, published 2025):
Residue numbers refer to the chain shown, from its start. Names may count otherwise. Blank lines part the entries; values can stand above or below the binder they belong to.

Columns and labels:
[1] = biological target: T1, circularly permuted human TfR apical domain (human); experiment: SPR, supernatant, anti-Fab capture
T1 construct: TfR residues 326-379 stand N-terminal to 194-296, loop 297-325 deleted; also called huTfR Apical Domain
T1 chain: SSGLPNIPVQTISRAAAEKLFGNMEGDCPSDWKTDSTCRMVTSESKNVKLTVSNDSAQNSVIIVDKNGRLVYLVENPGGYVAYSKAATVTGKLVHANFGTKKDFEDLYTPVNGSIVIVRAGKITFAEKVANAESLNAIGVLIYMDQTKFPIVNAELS
Experimental: (§1) Clones were expressed in HEK293 cells. Supernatants were captured for SPR by GE Healthcare anti-human Fab capture kit and the affinity to human and cyno TfR apical domain was measured (Table 30). The clones in Table 30 were bivalent and each TfR-binding Fc polypeptide also contained P329G and LALA mutations.

[2] = biological target: T2, circularly permuted cyno TfR apical domain (cynomolgus monkey); experiment: SPR, supernatant, anti-Fab capture
T2 construct: same design as the human construct; also called cyTfR Apical Domain; cynomolgus TfR apical domain
T2 chain: T1 chain with R39K, S45N, N47S, R69G, Y108D, T109S, N153K, E155D
Experimental: as §1

- Kd [1]: 2.33 µM
- Kd [2]: 15.1 µM
B1: 42.8.183 (Fc fusion)
chain: APEAAGGPSVFLFPPKPKDTLMISRTPEVTCVVVDVSHEDPEVKFNWYVDGVEVHNAKTKPREEQYNSTYRVVSVLTVLHQDWLNGKEYKCKVSNKALGAPIEKTISKAKGQPREPQVYTLPPSRDELTKNQVSLTCLVKGFYPSDIAVEWFYEGQKESNYKTTPPVLDSDGSFFLYSKLTVDKSRWQQGNLFACEVMHEALHNHYTYKLLSLSPGK
notes: bivalent; P329G+LALA

- Kd [1]: 1.03 µM
- Kd [2]: 12.5 µM
B2: 42.8.188 (Fc fusion)
chain: B1 chain with Q156S, S159T
notes: bivalent; P329G+LALA

- Kd [1]: 0.421 µM
- Kd [2]: 5.85 µM
B3: 42.8.216 (Fc fusion)
chain: B1 chain with G155D, Q156S, E158L
notes: bivalent; P329G+LALA

- Kd [1]: 1.23 µM
- Kd [2]: 13.3 µM
B4: 42.8.195 (Fc fusion)
chain: B1 chain with G155A
notes: bivalent; P329G+LALA

- Kd [1]: 1.15 µM
- Kd [2]: 11.9 µM
B5: 42.8.170 (Fc fusion)
chain: B1 chain with E154D, G155D, S159T
notes: bivalent; P329G+LALA

- Kd [1]: 1.14 µM
- Kd [2]: 10.5 µM
B6: 42.8.161 (Fc fusion)
chain: B1 chain with E154D, G155A, E158L, S159T
notes: bivalent; P329G+LALA

- Kd [1]: 0.08 µM
- Kd [2]: 1 µM
B7: 42.2.19 (Fc fusion)
chain: B1 chain with E154D, G155D, Q156S, E158L, S159T, Q189P, G190R, N191G, S212G, L213E
notes: P329G+LALA

- Kd [1]: 0.596 µM
- Kd [2]: 7.88 µM
B8: 42.8.210 (Fc fusion)
chain: B1 chain with G155D, E158L
notes: bivalent; P329G+LALA

- Kd [1]: 1 µM
- Kd [2]: 7.5 µM
B9: 42.2 (Fc fusion)
chain: B1 chain with Y153S, E154D, Q156S, S159T
notes: bivalent; P329G+LALA; also called 6.5.11.5.42.2

- Kd [1]: 2.05 µM
- Kd [2]: 22.2 µM
B10: 42.8.186 (Fc fusion)
chain: B1 chain with E158L
notes: bivalent; P329G+LALA

- Kd [1]: 3.76 µM
- Kd [2]: 11.1 µM
B11: 42.8.10 (Fc fusion)
chain: B1 chain with Y153S, E154G, Q156S, E158L, S159N
notes: bivalent; P329G+LALA

- Kd [1]: 2.38 µM
- Kd [2]: 13.6 µM
B12: 42.8.80 (Fc fusion)
chain: B1 chain with Y153S, Q156S, S159T
notes: bivalent; P329G+LALA

- Kd [1]: 0.436 µM
- Kd [2]: 4.63 µM
B13: 42.8.204 (Fc fusion)
chain: B1 chain with G155A, Q156S, E158L
notes: bivalent; P329G+LALA

- Kd [1]: 3.94 µM
- Kd [2]: 10.3 µM
B14: 42.8.65 (Fc fusion)
chain: B1 chain with Y153S, E154D, G155D, E158L, S159T
notes: bivalent; P329G+LALA

- Kd [1]: 1.85 µM
- Kd [2]: 13.3 µM
B15: 42.8.185 (Fc fusion)
chain: B1 chain with E158L, S159T
notes: bivalent; P329G+LALA

- Kd [1]: 1.05 µM
- Kd [2]: 11.6 µM
B16: 42.8.160 (Fc fusion)
chain: B1 chain with E154D, G155A, E158L, S159N
notes: bivalent; P329G+LALA

- Kd [1]: 0.832 µM
- Kd [2]: 7.45 µM
B17: 42.8.164 (Fc fusion)
chain: B1 chain with E154D, G155A, Q156S, S159T
notes: bivalent; P329G+LALA

- Kd [1]: 0.613 µM
- Kd [2]: 9.78 µM
B18: 42.8.176 (Fc fusion)
chain: B1 chain with E154D, G155D, Q156S, S159T
notes: bivalent; P329G+LALA

- Kd [1]: 5.96 µM
- Kd [2]: 27 µM
B19: 42.8.15 (Fc fusion)
chain: B1 chain with Y153S, E154G, G155A
notes: bivalent; P329G+LALA

- Kd [1]: 1.68 µM
- Kd [2]: 17 µM
B20: 42.8.184 (Fc fusion)
chain: B1 chain with E158L, S159N
notes: bivalent; P329G+LALA

- Kd [1]: 0.664 µM
- Kd [2]: 5.23 µM
B21: 42.8.140 (Fc fusion)
chain: B1 chain with E154G, G155D, Q156S, S159T
notes: bivalent; P329G+LALA

- Kd [1]: 0.872 µM
- Kd [2]: 9.79 µM
B22: 42.8.213 (Fc fusion)
chain: B1 chain with G155D, Q156S
notes: bivalent; P329G+LALA

- Kd [1]: 1.24 µM
- Kd [2]: 13.2 µM
B23: 42.8.134 (Fc fusion)
chain: B1 chain with E154G, G155D, S159T
notes: bivalent; P329G+LALA

- Kd [1]: 0.972 µM
- Kd [2]: 6.74 µM
B24: 42.8.78 (Fc fusion)
chain: B1 chain with Y153S, E158L
notes: bivalent; P329G+LALA

- Kd [1]: 0.755 µM
- Kd [2]: 11.4 µM
B25: 42.8.197 (Fc fusion)
chain: B1 chain with G155A, E158L, S159T
notes: bivalent; P329G+LALA

- Kd [1]: 1.01 µM
- Kd [2]: 11.4 µM
B26: 42.8.145 (Fc fusion)
chain: B1 chain with E154D, S159N
notes: bivalent; P329G+LALA

- Kd [1]: 1.03 µM
- Kd [2]: 4.46 µM
B27: 42.8.165 (Fc fusion)
chain: B1 chain with E154D, G155A, Q156S
notes: bivalent; P329G+LALA

- Kd [1]: 0.705 µM
- Kd [2]: 7.91 µM
B28: 42.8.180 (Fc fusion)
chain: B1 chain with E154D, G155D, Q156S, E158L
notes: bivalent; P329G+LALA

- Kd [1]: 3.91 µM
- Kd [2]: 9.84 µM
B29: 42.8.122 (Fc fusion)
chain: B1 chain with E154G, G155A, S159T
notes: bivalent; P329G+LALA

- Kd [1]: 1.1 µM
- Kd [2]: 13.5 µM
B30: 42.8.189 (Fc fusion)
chain: B1 chain with Q156S
notes: bivalent; P329G+LALA

- Kd [1]: 0.858 µM
- Kd [2]: 3.14 µM
B31: 42.8.129 (Fc fusion)
chain: B1 chain with E154G, G155A, Q156S
notes: bivalent; P329G+LALA

- Kd [1]: 1.88 µM
- Kd [2]: 19.1 µM
B32: 42.8.111 (Fc fusion)
chain: B1 chain with E154G
notes: bivalent; P329G+LALA

- Kd [1]: 0.446 µM
- Kd [2]: 7.41 µM
B33: 42.8.208 (Fc fusion)
chain: B1 chain with G155D, E158L, S159N
notes: bivalent; P329G+LALA

- Kd [1]: 2.71 µM
- Kd [2]: 13.4 µM
B34: 42.8.72 (Fc fusion)
chain: B1 chain with Y153S, E154D, G155D, Q156S, E158L
notes: bivalent; P329G+LALA

- Kd [1]: 0.26 µM
- Kd [2]: 1.8 µM
B35: 42.2.3-5 (Fc fusion)
chain: B1 chain with E154G, G155N, Q156G, S159T
notes: P329G+LALA

- Kd [1]: 0.665 µM
- Kd [2]: 4.63 µM
B36: 42.8.142 (Fc fusion)
chain: B1 chain with E154G, G155D, Q156S, E158L, S159N
notes: bivalent; P329G+LALA

- Kd [1]: 0.505 µM
- Kd [2]: 6.27 µM
B37: 42.8.202 (Fc fusion)
chain: B1 chain with G155A, Q156S, E158L, S159N
notes: bivalent; P329G+LALA

- Kd [1]: 1.23 µM
- Kd [2]: 11.8 µM
B38: 42.8.194 (Fc fusion)
chain: B1 chain with G155A, S159T
notes: bivalent; P329G+LALA

- Kd [1]: 0.44 µM
- Kd [2]: 7 µM
B39: 42.2.1-20 (Fc fusion)
chain: B1 chain with Y153A, E154D, G155A, Q156S, E158Q, S159R
notes: P329G+LALA

- Kd [1]: 0.761 µM
- Kd [2]: 11.3 µM
B40: 42.8.192 (Fc fusion)
chain: B1 chain with Q156S, E158L
notes: bivalent; P329G+LALA

- Kd [1]: 1.6 µM
- Kd [2]: 13.4 µM
B41: 42.8.187 (Fc fusion)
chain: B1 chain with Q156S, S159N
notes: bivalent; P329G+LALA

- Kd [1]: 1.85 µM
- Kd [2]: 14.3 µM
B42: 42.8.9 (Fc fusion)
chain: B1 chain with Y153S, E154G, Q156S
notes: bivalent; P329G+LALA

- Kd [1]: 0.869 µM
- Kd [2]: 8.05 µM
B43: 42.8.199 (Fc fusion)
chain: B1 chain with G155A, Q156S, S159N
notes: bivalent; P329G+LALA

- Kd [1]: 0.62 µM
- Kd [2]: 9.37 µM
B44: 42.8.212 (Fc fusion)
chain: B1 chain with G155D, Q156S, S159T
notes: bivalent; P329G+LALA

- Kd [1]: 3.07 µM
- Kd [2]: 28.6 µM
B45: 42.8.79 (Fc fusion)
chain: B1 chain with Y153S, Q156S, S159N
notes: bivalent; P329G+LALA

- Kd [1]: 0.647 µM
- Kd [2]: 4.91 µM
B46: 42.8.201 (Fc fusion)
chain: B1 chain with G155A, Q156S
notes: bivalent; P329G+LALA

- Kd [1]: 1.2 µM
- Kd [2]: 13.8 µM
B47: 42.8.207 (Fc fusion)
chain: B1 chain with G155D
notes: bivalent; P329G+LALA

- Kd [1]: 3.51 µM
- Kd [2]: 8.03 µM
B48: 42.8.147 (Fc fusion)
chain: B1 chain with E154D
notes: bivalent; P329G+LALA

- Kd [1]: 5 µM
- Kd [2]: 17.6 µM
B49: 42.8.93 (Fc fusion)
chain: B1 chain with Y153S, G155A, Q156S
notes: bivalent; P329G+LALA
